Source: patent US20080214468A1 (UNIVERSITY OF VIRGINIA PATENT FOUNDATION, published 2008)
Where no end group is shown, it is not given here.

Target: Vimentin from bovine aortic endothelial cells (bovine, UniProt P48616 2-466)
Assay: affinity chromatography of BAEC cell fractions on immobilized peptide
Experimental: Membrane and cytosol fractions from human bone marrow endothelial cells and bovine aortic endothelial cells were prepared and used to identify the components from within these fractions that bind to the peptides using affinity chromatography). […] Cell surface nucleolin is present at higher concentrations in actively dividing cells and is down regulated in cells when they become quiescent. Nucleolin is the apparent cell surface receptor of E-coli intimin-gamma. Cell bound intimin has been proposed to trigger a host cell response similar to the extension of filipodia when cells bind to laminin. […] Table 3 provides a summary of peptide-binding partners (putative receptors) identified by affinity chromatography of cell lysates.

Vimentin from bovine aortic endothelial cells, sequence (P48616 2-466 limits assumed): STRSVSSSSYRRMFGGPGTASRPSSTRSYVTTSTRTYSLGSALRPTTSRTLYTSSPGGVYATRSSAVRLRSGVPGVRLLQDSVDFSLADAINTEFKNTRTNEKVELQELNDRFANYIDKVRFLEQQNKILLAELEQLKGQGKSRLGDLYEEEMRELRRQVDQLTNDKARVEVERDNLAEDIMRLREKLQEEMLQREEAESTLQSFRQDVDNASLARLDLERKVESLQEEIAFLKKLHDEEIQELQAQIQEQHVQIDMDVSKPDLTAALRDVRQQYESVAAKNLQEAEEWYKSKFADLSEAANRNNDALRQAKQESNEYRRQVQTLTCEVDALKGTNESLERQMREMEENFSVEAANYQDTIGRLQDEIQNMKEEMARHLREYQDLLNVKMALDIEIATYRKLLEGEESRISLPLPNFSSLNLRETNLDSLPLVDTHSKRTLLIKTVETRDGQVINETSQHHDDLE

| Binder | binding result |
| --- | --- |
| SYSQMDPPRSLPGGGS (also: biotinylated, position not given here, 12-mer with the C-terminal GGGS linker) [peptide R8 (SEQ ID NO:14)] | binds |
| QRSWTLDSALSMGGGS (also: biotinylated, position not given here, 12-mer with the C-terminal GGGS linker) [peptide L12 (SEQ ID NO:7)] | binds |
